Measured values published in a protein production outcome set (Wang et al. 2014).

Assay: label from the status in PepcDB records
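Note: failed if final PepcDB status was selected cloned or expressed and not failed if soluble or beyond.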

Sequence	protein production
MTADSQTCFCVCTMAVTVTNNQAIDLSRAKAQGRAMAKPLTSHRPILAVSLKLGALVLFTSMSALIKVLSADFPAGEMVFFRSLFAIPVIILWLLARGELRQGLIVKKPMGHFWRGVLGTGAMGLTFTGLGLLPLPEVTAIGYATPIFTLILAALMLGETIRLVRIGAVALGLLGVLIMLWPRLGTGASLDQAATIGALCVLAATVARAFVQIHIRQLVQVDHAAAIVFYFSLTATLLSGLTAFFGWVTPTPEQAAILILTGLVGGVAQILVTSSYRFGQASMLAPYDYASMLFAIIIGYIWFDEWPTLVMLAGAMLVIAGNVVVIWRERQLGLERGKARSVTDPKG	failed
MTAEPAATSAPLSGPVAVIGCGWVGWPLARALLVAGAEVRGSATTPEKVAALRAEGVAATRLRLTPDTSPESDELTELLRGAHRLVLTVPPGRGPERERYAEYLSPVAQAAALHGVRQLIFTSSTGVYPNDPHVMTESDALATPDSPSPLLRAEAALAAAGVPLTVLRFAGLYGPGRPPGRFLAGRTEVGEGSAPVNLVHLDDCVGAVQHMLGGDFGGQTFNVCAAAHPLRRDFYPAAARALGLEAPSFAPHEGGGKIIGSEAFRAATGYHFRHDDPLSDLHTLGNGQGA	failed
MTAEQLIEKYKNPAIIGLGVIVALIAAFVFYKYNQSENNTVAQEEMYKAVFYFEQDSLELALKGDEAKGIRGLQEVADEYSGTKAGKLAAFYTGIIYLKQAKFQESIDYLEKFSSNEGILQARSWAAMGDAYSELNDLENAIKYYKKAADHKGNEQITPTYLMKLGLAYELNNNWKDASDAYDKIITDYPKSQDVADAKKYKAKAQAALSASE	failed
MTAETSQTLDRGLRVLKLLADTDHGLTVTELSHKLGVNRTVVYRLLATLEQHALVRRDLGGRARVGLGVLGLGRQVHPLVREAAMPALRALAEDIGATAHLTLVDGAEALAVAVVEPTWTDYHVAYRAGFRHPLERGAAGKAILAARQPSQPTGGEAVDDPGYTLTHGELEAGACGAAAPLLGVTGVEGSVGVVMLADVVPERVGERVKHAAREVAEALR	failed
MTAILLHNVAKSYRSYDHPWETLWEVFTKTRRHREWTALHPLSLEIAHGEVVGIVGTNGAGKSTLLKLIAGTLTPSAGDIRVNGHVAALLELGAGFHPDMTGRENVYLGASVMGLSSERVDRLYDGIVEFAGLGEFMDQPVKTYSSGMYMRLAFAVATAADPDVLILDEALSVGDGAFARKSFERIIGYKDAGKTILFCSHSLYQVEAICSRVLWLDHGRLVMDGEPARVVSAYAEFLGGGGEGCGTPDQPAPAAVAGSGVGRLTKVEVEADGVEGRKLTVRSGQTDLTVAVGFASDPALPPPSVGLTITGSNGWAVTSASTSNDGLTISRRPDGSGEVELSFPRFPLLKGAYWVNVFLLCEQGIHLYDRIEHAAELEVVQDGLEQGVVSLPRRWSVNGAPASAVSPTVPTVAAWLEHHHHHH	failed
MTAIYIGVMTGTSMDGVDFVAASFDPLHIHATLTLPFEPALRDELMALTLPGDNEIDRMGKADVGLAKLIGHGINMLIEQNHLDRHVIKAIGSHGQTIRHRPEHGFTLQIGDPHIITELTGIPVISDFRRRDMAAGGQGAPLVPAFHQAIFQHSTIHRVILNLGGIANVSLLPAGNPDGVYGFDTGPANILMDAWCERYTGHPYDENGNWAAYGQPIRALLERLQAHEFFSKKPPKSTGREDFNLDWLDDQLADWRNDELEYDELEDTPENVQATLLKLTTRAIKKAIYRSELDTGEVYVCGGGAYNSHLLEQLRWRLRKHHWSVQSTSVLGLSPTWVEATAFAWLAMRFMQQQSANLPSVTGAAGFRILGTITSV	failed
MTALFFENFAPGHFGRYGPRRVTREEIIAFASEYDPQPMHLDDHAANASMLKGMSGSGWHLSSLMMRMMYDGFIKDTASLGSPGVDEMRWMSPLRPGDDLLLDVEVIEARVSKSRPETGIVTFKCYVRNGHGQMLSEMVSPIIVKRRDAD	failed
MTALKPALPDYLGNIRIILTRTSHPANIGSAARAMKTMGLHRLTIVTPNLMATPMTENPPVFNPDDVQSFALPEESFILASGAADVLHNAEIVATLDEALADTTIACALTSRRREITAPLQTPRDLVPELLQAANRGEKVALVFGNETFGLSIEEVRACNRLMTINGNPDYFSLNLAQAVQVVCYEIFSQTDSPMTHLQQEDHAATHEQIKGMLAHMESVMDDIGFFNRRNGERLMRRMQSLFGRANTQTEDIDILRGFFNTVSHRIHKKD	failed
MTAPAICNTTETVHGIATSLGAVARQASLPRIVGTVVGITVLVVVALLVPVPTAVELRDWAKSLGAWFPLAFLLVHTVVTVPPFPRTAFTLAAGLLFGSVVGVFIAVVGSTASAVIAMLLVRATGWQLNSLVRRRAINRLDERLRERGWLAILSLRLIPVVPFAAINYAAGASGVRILSFAWATLAGLLPGTAAVVILGDAFAGSGSPLLILVSVCTGALGLTGLVYEIRNYRRQHRRMPGYDDPVREPALI	failed
MTAPIIITGVGKRIGYALAKHLLAQGHKVIGTYRSHYPSIDELQSLGATLIQCDFYDNAQVQNLIEQLSQYPKFRAIIHNASDWLADNSPEFAAHEVMQRMIQVHVNVPYQMNLALASKLQAGAEGEIGASDIIHITDYVAEKGSAKHIAYAASKAALDNLTLSFAAKLAPEVKVNAIAPAMILFNPSDDEAYRQKTLAKAILPKEAGNHEIIELMEYLLNSRYVTGRSHHVDGGRHLR	not failed
MTAPKITQKFNEVETKTTEILNKVLTDDRYFTVTSSFKQDATLGIEYYVTKVTPKTTEAKKSMVQKTFAYDFEKSIDPTSSYFGTTNRETVLSMAKRKRSVVAINASGWRSNGEVMGLQIKDGVLYKDYDAAGYTGAEACVFFDDGTMKVYGNREVDADILISKGARNSFAFGIWLVKDSKPRTAQMTTWADLNVKHPRQAIGQRSDGTLVIITVDGRSLRSSGITAYDMPSLFLSEGCINAFLLDGGGSSQTAVEGKYINNISDGIERAVVDTLTISYPDDDTDSRFFEVQEGRGLATSLNRRVEFIESKPTWNVLDLGFSPDGLIDNTAKFKKALSDLSEKGGGKLHFPKGTYLIGKQNTTSASEKIELPSNVSIVGERRSYTKLLRNPNHSLDELLRITDHNYIEGIEIDGNSSVNKSSCRLIAGGNIKSFKMKDCSLVNATDRGVSIHGIGKSITIEGMYISNIANECINVAEGEIIKLIDSEITFSGTALWVGNAANIFTKNNLAKSLKTFVRYKNSQNAICSGNIITNNIDRAIWGSVREAVFSDNVFKQCHSDYHLYFIQEDTGTNDLIVTGNSVYSDVEGTAFIRTPSDIDRRRVSGNVGNIPSLNLDLEHHHHHH	not failed
MTAREIAEHPFGTPTFTGRSWPLADVRLLAPILASKVVCVGKNYADHIAEMGGRPPADPVIFLKPNTAIIGPNTPIRLPANASPVHFEGELAIVIGRACKDVPAAQAVDNILGYTIGNDVSARDQQQSDGQWTRAKGHDTFCPVGPWIVTDLAPFDPADLELRTVVNGDVKQHARTSLMIHDIGAIVEWISAIMTLLPGDLILTGTPAGVGPIEDGDTVSITIEGIGTLTNPVVRKGKP	failed
MTATGLERSTANAQSLRNDSHQRSFHRFDGLTASSDITLEAVSSVDAIAAADWDACARSGTIVPHPDGAGGACTTATAAYNPFLSHAFFTALEQSGSASPRTGWGPRHLIAKHEGAIVGIVPCYLKSHSQGEYVFDRGWADAYERAGGNYYPKLQVSVPFTPATGPRLLIRDRIDSARVAGALANGLMALCDLSKASSVHVTFARESEWRFLAECGFLQRTDQQFHWHNAGYSSFDDFLATMNSRHRKGIKRERRDAVASGITIHHLTGADITEDAWDAFFEFYIETGSRKWGRPYLTREFYSLIGQSMSEDVLLVMAKRNGRWIAGAINFIGGDTLFGRHWGAIEHHPFLHFEVCYYQAIDFAITRGLKVVEAGAQGEHKIARGYLPQTTYSAHFIADPALRRAIADYLKRERMYVDEMGRELTEAGPFKKGNIADPA	failed
MTAVSSVYAQRLLITLFLVSFGIYLFVATVTYTPFDPGWMHISSDTQNVSNASGVAGAWIADLMFGFLGWASLLIPIFLFIEAIQIWWPRSFLTRPFRYAAQFFIILATSTLLYLYWNVPADTLENASGGIIGFEVGQSLSGLLTIYGATLFLVAFWVLLITLAFGIQWNRTWATLKATPAYLQDLFYKNVSPNESDYDLTEQPKKTASTSKTTVASEQNHQDQVHDQHLEQTTRTDQKAFDTTTKNFVSDEMVEKLFADVVAKEQYAQQQVQAVNTSIEDPAFEQTIQKAHQLEKEAKRLVPTGEVWKALQTDDSTHKQEIDALLRAADDNEPSVTPMTSDELLANLKAQQAQQNHTQPNNHTAKLNWNDDQIFDELLAAMPNSKIGSDIHTPFVEHREDTTPDHTDHLIQQVEQTLQASSNTLQPKNMTNLDEAEEQSDLLTETVEENPSTHYAGQPQNRSFTSNELTAKDQEKLSKEEFIEAWQETAGKPVEDDFDFDAPLTDASGRPMSRAMQVAQKRRDLPTLPGLELLDKVDPNKKVNFTVEQLERLSELLEIKLQEFNVKAKVVEAQPGPVVTRFELDLAPGVKASKVTNISRDLARSMSMASVRVVEVIPGKPYIGIEVPNSSREMVRLIELLETASFRDPAGLLSMAMGKDISGNPVITDLGKAPHMLVAGTTGSGKSVAVNSMILSMLLKYTPDQLRLILIDPKQLELANYNDIPHLLTPVVTDMKDAVSALNWCVNEMERRYKLMSFLKIRKLADYNRKVEEAIANGEDLIDPTWKPSDSATQERAPRLQPLPSIVIVADEFADMIMQVGKKAEEMITRLAQKSRAAGIHLLLATQRPSVDVITGLIKANIPTRVALRVNSKIDSRTILDAGGAEDLLGHGDMLFLGPGKIEPERVHGAFIGDDEVNRICDAWRERGEPNYVDEILTPFDEEPTSRGFEDGGEGASDRDMLYDQCVAFVLETRKASTSSLQRKFSLGYNRAARIIDQMEENGIVSAMGANGKREILV	failed
MTAYTSWQTPHLFIFIQQDYILDSIPLSSLFITLIILLLLSAFFSSAETGLMSLNRYKIRHLTAQGHKGAKLAEKLLNKTDVLLSLILICNNLINIAASAIATMIGIRLAGDTGIAIATGILTLVMLVFSEILPKTIAVIYPEKISFLASYILTPLKKLLMPLVFLMNLIIKYLMKLMRIRQHEKSGLSIEELRSVVLEAGKFIPTAHQEMLISILDMEKVTVEDIMVPRNDIGGIDIEDDWKAIIRQLNHAAHGRVVLYKGNMDKNILGILRIREAFRLLLDKEEPSKKTLIRAVDEAYFIPEGTPLITQLMHFKTNKERLGLVVDEYGDIKGLVTLADILEEIVGEFTTSTAPTLAEEVKQQSDGSVIIEGSANLRDLNKLFNWHLPINEVRTFNGLILEHLEKIPIEGTQFRLNQLNITVLEVADNMVKKVKVELIE	failed
MTDARTTVVVITHNRCAEVLRTLDRLAELPERPAVIVTDNGSTDGTAAAVARHHPGVRLLRSGRNLGAVGRNLAVRQVTTPYVAFCDDDSWWAPGSLSGAADLLDRYPAVGSVTARILVEPEGTEDPIVEELRDSPVPRPDWLPGPALGSFLAAATVLRTDAFRAAGGFHPRLWLGGEEELLAADLAANGWWLTYAGQLTIHHHPSGVRDSTVRRSHGIRNTLWFTWLRRPVGPALRRTLHLARTVPRDTASLRAFAEATAALPWVLRERRVLPPEVEARLRALEPAQRDSTARSYTGLEHHHHHH	failed
MTDDRPPLPPFTRATAAQKVQAAEDAWNTRDPHKVSLAYSPDSVWRNRDTFVTGRAAIVELLTAKWAREREYALRKDLWAFDGNRIAVRFQYECQDADGQWWRSYGNELWEFDEHGLMTRREAGIHDVRIEERERRILGPRPEAERGRSFPVQ	failed
MTDDVTNVEQPSTASEQQPQDVPAAEPSAAKKRRANKAKSKATAAAIEQRLGHSFADPSLLTTAFTHVSALKSARRTDSYQRLEFLGDHVLGLIVSDMLYRAFPDADEGELSKRLADLVRKETCADVARSLDLVEGIKLGTVGAGAGAKLRKSVLGDICEAVIGAIYLDGGYEAASDFVRRNWTERMRKPARSLRDPKTVLQEWAQARGLPTPVYREVERTGPHHDPQFRVAVILPGLEPAEGLGGSKRAAEKVAASAMLAREGVGTGGNDG	failed
MTDEDSEANALADPDNPPLSAEQLASAPRMPRIKIIRRALKLTQEEFSARYHIPLGTLRDWEQGRSEPDQPARAYLKIIAVDPEGTAAALRKGAT	not failed
